Experimental findings from patent publication US20210130485A1 are described below.

The target in this assay is FcγRs. Description: cell-based or functional assay.

For the substance “cis-LALA modified Fc polypeptide dimer fused to an anti-BACE1 Fab (bispecific antibody)”, the pSyk levels in primary human microglial cells on polypeptide-coated plates (pSyk sandwich immunoassay) amounted to 3 fold.
